According to US20160348147A1, “SYSTEMS AND DEVICES FOR PROTEASE DETECTION BASED ON ENGINEERED POLYMERS AND BIOPOLYMERS AND METHODS OF USE” (DUKE UNIVERSITY, priority 2014, published 2016):
One block for each compound: values may come before it.

Assays:
[1] = target: T1, Human MMP-1 catalytic domain (Homo sapiens, UniProt P03956); assay: Time-dependent aggregation (OD350) of ELP-substrate fusion with MMP-1 in proteolysis buffer; assay type: biochemical; conditions: 50 nM MMP-1 inhibitor added prior to 50 ng/mL (2.5 nM) MMP-1; ELP-substrate fusion 100 μM, 40° C., protease buffer; even after 900 minutes
T1 construct: Human MMP-1 catalytic domain (recombinant, produced in E. coli, 19.9 kDa, >95% purity); purchased Enzo Life Sciences (Farmingdale, N.Y.); host or cells: E. coli
T1 sequence (P03956 100-269 limits assumed): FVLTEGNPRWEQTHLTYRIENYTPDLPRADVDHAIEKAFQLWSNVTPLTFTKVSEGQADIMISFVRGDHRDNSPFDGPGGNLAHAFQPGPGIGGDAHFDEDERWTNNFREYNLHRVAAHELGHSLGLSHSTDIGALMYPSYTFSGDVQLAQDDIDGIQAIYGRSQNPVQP

[2] = test system: endogenous MMP-1 in human serum; assay: Time-dependent aggregation (OD350) of ELP-substrate fusion in diluted human serum (40%); assay type: biochemical; conditions: diluted serum, without any added MMP-1, after 400 minutes, 37° C.
Description: We performed the proteolysis reactions either in 100% protease buffer or in a mixture of human serum and buffer (40% (v/v) serum, 50% (v/v) buffer, 10% (v/v) ELP-substrate solution in water). The proteolysis buffer (100 mM HEPES, CaCl2 20 mM, MgCl2 1.0 mM, ZnCl2 100 μM, NaCl 0.5 M for diluted serum and 0.1 M for buffer solutions) was made experimentally in our lab based on previously published assays (Patterson, J. & Hubbell, J. A. Biomaterials 2010, 31, 7836-7845; Turk, B. E. et al., Nature Biotechnology 2001, 19, 661-667; Lowe, S. B. et al., Acs Nano 2012, 6, 851-857). We investigated proteolysis in two ways. In the first approach, we incubated solutions of the ELP-substrate fusion with MMP-1 (100 ng/mL) for 12 h at 40° C. temperature and measured the optical density at 350 nm (OD350) before and after the incubation. In the second approach, we incubated the ELP-substrate fusion with varying concentrations of MMP-1 (0.02 ng/mL to 200 ng/mL) in buffer or in diluted human serum, at 40° C. or 37° C. respectively, a temperature that is above the CMT of the ELP, and monitored the changes OD350 as a function of time (kinetic study). For the kinetic studies, we added the enzyme to the solution after the optical density of the solution reached a steady-state value and repeated the experiments at least three times. […]

[3] = Thermal behavior by optical turbidimetry and dynamic light scattering; assay type: physicochemical; conditions: concentration of 100 μM
Description: We confirmed the purity and molecular weight of the purified peptides by electrophoresis (10-20% gradient […] SDS-PAGE, Thermo Scientific, CA) and by matrix-assisted laser desorption/ionization mass spectrometry. Mass spectrometry samples were prepared by mixing the enzymatic reaction product with sinapinic acid in 1:10 ratio. 1 μL of the sample/matrix mixture was then loaded on the grid and the measurements were performed on a Voyager-DE-Pro instrument (Applied Biosystems, Germany). To determine the concentration of the ELP-substrate fusion solutions we used a calculated extinction coefficient (Gill, S. C. & Vonhippel, P. H. Analytical Biochemistry 1989, 182, 319-326) or lyophilized the polypeptide solution. We studied the thermal behavior of the ELP-substrate fusion constructs in both proteolysis buffer (see below) and diluted human serum in the presence and absence of MMP-1 using optical turbidimetry on a temperature-programmed UV-vis spectrometer (Cary 300, Agilent Technologies). To characterize the size of the micelles and aggregates, we used single angle dynamic light scattering (DLS; DynaPro, Protein Solution).
FIG. 2 presents optical densities at 350 nm (OD350) and hydrodynamic diameters of ELP-substrate fusion as a function of temperature prior to, and after, enzymatic reaction. […] These changes are consistent with the self-assembly of ELP-substrate fusions (unimers) into micelles as the temperature is raised above the CMT (Ghoorchian, A. et al., The Journal of Physical Chemistry. B 2013, 117, 8865-8874). We note that there is a slight local maximum in both the optical density and hydrodynamic diameter at temperatures slightly above the CMT, which has been observed previously (Hassouneh, W., Duke University, PhD thesis, 2013); the origin of this small peak is, as yet, unclear.

MMP-1 = target: T2, MMP-1 (Homo sapiens, UniProt P03956); assay: Transition temperature of UCST biopolymer before and after incubation with MMP-1; assay type: biochemical; conditions: 25 μM, 25 ng/mL MMP-1, 37° C.
T2 sequence (P03956 100-469): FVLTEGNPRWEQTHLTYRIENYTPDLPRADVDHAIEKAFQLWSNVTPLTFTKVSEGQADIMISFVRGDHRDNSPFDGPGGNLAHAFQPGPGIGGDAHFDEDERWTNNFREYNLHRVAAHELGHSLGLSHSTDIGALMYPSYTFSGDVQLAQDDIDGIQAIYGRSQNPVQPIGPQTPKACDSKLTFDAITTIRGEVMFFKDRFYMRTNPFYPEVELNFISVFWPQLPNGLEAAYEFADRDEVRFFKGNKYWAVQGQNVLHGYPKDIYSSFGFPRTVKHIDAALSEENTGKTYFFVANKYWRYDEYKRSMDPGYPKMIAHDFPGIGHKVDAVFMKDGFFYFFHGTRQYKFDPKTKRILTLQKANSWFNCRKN
Excerpt: To exemplify the use of UCST peptides, we changed our system by incorporating a number of UCST biopolymers with the MMP-1 substrate, for example: M(YPSDGRGQ)40YGDGQ VPMSMRGGDEGQQDDEEGY (SEQ ID NO:7; referred to herein as the A4 construct). Cleavage of the protease-sensitive peptide between S and M in this sequence at a constant temperature would increase the transition temperature, which can cause the solution to transition from clear to cloudy. The time that takes for the transition to happen depends on the enzyme concentration similar to in the manner in which the LCST, micellar-based assays described above function.
Accordingly, aggregation time can be used to estimate the enzyme concentration in an unknown solution.

active PSA = active PSA (Homo sapiens, UniProt P07288); assay: Optical density of PSA peptide before and after incubation with active PSA; assay type: biochemical; conditions: 100 μM, 20 ng/mL active PSA, protease buffer, 37° C., 2 hours
Description: We designed a number of genes and replaced the MMP-1 sensitive peptide described above with a PSA-sensitive peptide sequence. One such example is: M(GVGVP)60[…] (SEQ ID NO:6; referred to herein as PSA peptide). Optical density measurements of 100 μM solution of PSA peptide were obtained prior to and after incubation with 20 ng/mL active PSA in protease buffer at 37° C. for 2 hours.

Sequence of active PSA (P07288 25-261): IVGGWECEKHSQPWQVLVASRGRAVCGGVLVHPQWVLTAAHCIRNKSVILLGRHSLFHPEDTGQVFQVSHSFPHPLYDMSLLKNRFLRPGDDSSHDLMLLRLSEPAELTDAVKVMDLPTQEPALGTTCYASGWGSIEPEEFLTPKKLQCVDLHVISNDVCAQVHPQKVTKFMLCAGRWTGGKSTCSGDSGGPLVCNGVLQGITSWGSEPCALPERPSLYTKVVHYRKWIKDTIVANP

Compound: COc1ccc(S(=O)(=O)N(CC(=O)NO)CC(C)C)cc1 [NNGH, N-isobutyl-N-(4-methoxyphenylsulfonyl)glycyl hydroxamic acid, reference compound]
- change in optical density upon addition of the inhibitor [1]: no significant change in optical density
- aggregation in diluted serum with added MMP-1 inhibitor [2]: no aggregation

Compound: (GVGVP)60 [reference compound]
- soluble unimer-aggregate Tt [3]: ≈ 37 °C

- transition temperature prior to and after incubation with MMP-1 (MMP-1): change in transition temperature
Compound: M(YPSDGRGQ)40YGDGQ VPMSMRGGDEGQQDDEEGY (MYPSDGRGQYGDGQVPMSMRGGDEGQQDDEEGY) [A4 construct, MMP-sensitive-UCST biopolymer]

Compound: M(GVGVP)60GDGQSSIYSQTEEQQDDEEG (MGVGVPGDGQSSIYSQTEEQQDDEEG) [PSA peptide]
- optical density after incubation with active PSA (active PSA): increase in optical density of the solution above the transition temperature
